Data taken from patent US5650391.

Experiments:
[1] = target: low density lipoprotein receptor-related protein/a2-macroglobulin receptor (LRP) on rat hepatoma MH1 C1 cells (rat)
[2] = target: low density lipoprotein receptor-related protein/a2-macroglobulin receptor (LRP) on rat hepatoma MH1 C1 cells (rat); remark: listed apart in the source
[3] = target: human low density lipoprotein receptor-related protein (LRP) on human hepatoma HepG2 cells (human) (UniProt Q07954)
[4] = target: TFPI binding sites on rat hepatoma MH1 C1 cells (receptor not identified); experiment: binding of ^125 I-TFPI to MH1 C1 cell monolayers at 4° C. (saturation with Scatchard analysis, and competition by unlabelled TFPI)

Substance	inhibition of ^125 I-TFPI degradation (trichloroacetic acid-soluble radioactivity) by MH1 C1 cells, 4 h at 37° C. [1] [%]	degradation of pre-bound ^125 I-TFPI in a single cycle of endocytosis in MH1 C1 cells [2] [%]	degradation of pre-bound ^125 I-TFPI by HepG2 cells (single cycle endocytosis assay) [3] [%]	functional activity (stoichiometric inhibition of factor Xa) (factor Xa) [%]	Kd [4] [nM]
receptor-associated protein (RAP), 39-kDa protein, full-length (1-319) (ligand)	80	80	65		
recombinant human full-length tissue factor pathway inhibitor (TFPI) (from UniProt P10646) (ligand)				88	30
